Experimental findings from paper doi:10.1101/2024.08.21.608925 are described below.

Like-named read-outs stand apart in the source and are kept apart here.

The target in test [1] is Multiple peptide resistance factor (MprF) from Pseudomonas aeruginosa, wild type, CPD-His construct after IP6 cleavage (Pseudomonas aeruginosa). Description: cryo-EM structure.
Test [2] has the same target. Put plainly: cryo-EM structure. The source holds these as a separate data set.

Consider “Multiple peptide resistance factor (MprF) from Pseudomonas aeruginosa, wild type, CPD-His construct after IP6 cleavage (enzyme)”, for which the stoichiometry N in test [1] and in test [2] was 2 in each case.
